Experimental findings from patent US20150087581A1 (AURIGENE DISCOVERY TECHNOLOGIES, published 2015) are described below.

To fix the notation:
B1: Compound 16 (peptide)
peptide: Hexanoyl-SNTSESFKFRVTQLAPKAQIKE-NH2
modifications: not fully specified (residue 8)
B2: Compound 30 (peptide)
peptide: SNTSESFKLAPKAQIKE-NH2
modifications: not fully specified (residue 8)
B3: Compound 42 (peptide)
peptide: SNTSESFFRVTQKLAPKAQIKE-NH2
modifications: not fully specified (residue 13)
B4: Compound 40 (peptide)
peptide: SNTSESFKFK(Palmitoyl)VTQLAPKAQIKE-NH2
modifications: not fully specified (residue 8)
B5: Compound 32 (peptide)
peptide: SNTSESFKKAQIKE-NH2
modifications: not fully specified (residue 8)
B6: Compound 37 (peptide)
peptide: SNTSESFKFRVTQLAPKAQIKE-NH2
modifications: not fully specified (residue 8); printed as SNTSESFK(LAP)FRVTQLAPKAQIKE-NH2
B7: Compound 14 (peptide)
peptide: EKIQAKPAYWNLVKDTQNS-NH2
modifications: not fully specified (residue 14)
B8: Compound 17 (peptide)
peptide: Ac-SNTSESFKFRVTQLAPKAQIKE-NH2
modifications: not fully specified (residue 8)
B9: Compound 22 (peptide)
peptide: SNTSESF[R5]PKA[R5]SNTSESF-NH2
modifications: staple 8-12; not fully specified; printed as SNTSESFR5PKAR5SNTSESF
B10: Compound 11 (peptide)
peptide: SNTSESFKFRVTQLAPKAQIKE-NH2
modifications: not fully specified (residue 8)
B11: Compound 25 (peptide)
peptide: SNTSESFKFRVTQLAQIKE-NH2
modifications: not fully specified (residue 8)
B12: Compound 38 (peptide)
peptide: LAPKFRVTQLAPKAQIKE-NH2
modifications: not fully specified (residue 4); printed as LAPK(LAP)FRVTQLAPKAQIKE-NH2
B13: Compound 3 (peptide)
peptide: SNQTDKLAAFPEDSQPGQD-NH2
B14: Compound 46 (peptide)
peptide: SNTSESFKFRVTQLAPKAQIK(Octanoyl)E-NH2
modifications: not fully specified (residue 8)
B15: Compound 41 (peptide)
peptide: SNTSESFKFRVTQLAP-NH2
modifications: not fully specified (residue 8)
B16: Compound 27 (peptide)
peptide: SNTSESFKFRVTQLAPKAQIKE-NH2
B17: Compound 21 (peptide)
peptide: Hexanoyl-SNTSESFKFRVTQLAPKAQIKE-NH2
modifications: not fully specified (residue 8)
B18: Compound 35 (peptide)
peptide: SNTSESFKFRVTQKKAQIKE-NH2
modifications: not fully specified (residues 8, 14)
B19: Compound 4 (peptide)
peptide: EDRSQPGQDCR-NH2
B20: Compound 1 (peptide)
peptide: SNTSESF-NH2
B21: Compound 49 (peptide)
peptide: EKIQAKPALQTVRFKFSESTNS
modifications: not fully specified; Retro inverso (All D-amino acid); branch fsestns on the side chain of lys 15 of the main chain; C-terminal amide
B22: Compound 45 (peptide)
peptide: SNTSESFKFRVTQLAPK(Octanoyl)AQIKE-NH2
modifications: not fully specified (residue 8)
B23: Compound 36 (peptide)
peptide: SNTSESFKFRVTQLAKQIKE-NH2
modifications: not fully specified (residues 8, 16)
B24: Compound 20 (peptide)
peptide: SNTSESFKFRVTQLAPKAQIKE-NH2
modifications: not fully specified (residue 8)
B25: Compound 29 (peptide)
peptide: SNTSESFK-NH2
modifications: not fully specified (residue 8)
B26: Compound 43 (peptide)
peptide: FRVTQLAPKAQIKE-NH2
B27: Compound 28 (peptide)
peptide: SNTSESFKSNTSESFFRVTQLAPKAQIKE-NH2
B28: Compound 31 (peptide)
peptide: SNTSESFKFRVTQKAQIKE-NH2
modifications: not fully specified (residue 8)
B29: Compound 26 (peptide)
peptide: SNTSESFFRVTQLAPKAQIKE-NH2

Bridges are numbered along the chain shown (N, C = ends). Where no end group is shown, it is not given here. [ ]: non-standard residue; d: D form. The star is where a group is joined. Palmitoyl = CCCCCCCCCCCCCCCC(=O)*; R5 = C=CCCC[C@@](C)(N)C(=O)O; Octanoyl = CCCCCCCC(=O)*; Hexanoyl = CCCCCC(=O)*

hPDL1 expressed on MDA-MB231 cells, sequence (Q9NZQ7 19-290): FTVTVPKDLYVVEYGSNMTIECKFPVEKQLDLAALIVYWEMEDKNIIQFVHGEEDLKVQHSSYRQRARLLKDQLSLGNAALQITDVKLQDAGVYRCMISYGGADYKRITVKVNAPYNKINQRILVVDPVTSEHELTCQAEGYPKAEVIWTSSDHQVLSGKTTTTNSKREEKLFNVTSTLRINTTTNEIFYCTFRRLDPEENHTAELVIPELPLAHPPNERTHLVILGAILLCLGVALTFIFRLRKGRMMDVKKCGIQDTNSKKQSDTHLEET

This experiment has as its target hPDL1 expressed on MDA-MB231 cells (human, UniProt Q9NZQ7 19-290). Put plainly: cell-based or functional assay.
Take B1: the “Percent rescue (100 nM, compared with 100 nM Comp 8) in mouse splenocyte proliferation CFSE based assay” value (from here on “Percent rescue”) worked out at 45.8%.

Turning to B2, the “Percent rescue” value was determined as 58.8%.

Turning to B3, the “Percent rescue” value was determined as 52.9%.

B4: the “Percent rescue” value turned out to be 82%.

Consider B5, for which the “Percent rescue” value came to 14.8%.

In the case of B6, the “Percent rescue” value was 89.6%.

Consider B7, for which the “Percent rescue” value was determined as 18%.

Consider B8, for which the “Percent rescue” value stood at 32.9%.

On to B9, for which the “Percent rescue” value was found to be 71.4%.

For the molecule B10, the “Percent rescue” value turned out to be 12.4%.

Take B11: the “Percent rescue” value is 27.6%.

As to B12, the “Percent rescue” value worked out at 51.5%.

Take B13: the “Percent rescue” value came to 37.3%.

For B14, the “Percent rescue” value was 67%.

As for B15, the “Percent rescue” value stood at 5.1%.

Take B16: the “Percent rescue” value was 73.6%.

With B17, the “Percent rescue” value is 76.7%.

On to B18, for which the “Percent rescue” value was 81.2%.

Consider B19, for which the “Percent rescue” value was 74.7%.

In the case of B20, the “Percent rescue” value is 96.5%.

Take B21: the “Percent rescue” value is 73%.

B22: the “Percent rescue” value turned out to be 68%.

With B23, the “Percent rescue” value was determined as 89.7%.

Take B24: the “Percent rescue” value came out at 27.8%.

B25: the “Percent rescue” value amounted to 31.1%.

Regarding B26, the “Percent rescue” value is 66%.

For the molecule B27, the “Percent rescue” value was 56.5%.

For B28, the “Percent rescue” value worked out at 11.3%.

Consider B29, for which the “Percent rescue” value worked out at 86.6%.
